# Experimental data: paper PMC11342271, “A high-throughput screening identifies MCM chromatin loading inhibitors targeting cells with increased replication origins” (iScience, 2024)
# Experiments:
# [1] = target: T1, recombinant Xenopus laevis CDC6 (rCDC6) (Xenopus laevis, UniProt P79946); test: isothermal titration calorimetry, one-site fit; format: binding; settings: 25 °C; PBS, 10% glycerol, 1 mM MgCl2, 1 mM DTT, 1% DMSO; CDC6 74 μM (75 μM in methods) titrated with 1 mM compound
# T1 construct: gene cdc6.S; full-length; GST fusion from pGEX-6P-1 in E. coli Rosetta (DE3); GST cleaved with HRV 3C protease; Resource S and Superdex 200 purified
# T1 sequence (P79946 1-554): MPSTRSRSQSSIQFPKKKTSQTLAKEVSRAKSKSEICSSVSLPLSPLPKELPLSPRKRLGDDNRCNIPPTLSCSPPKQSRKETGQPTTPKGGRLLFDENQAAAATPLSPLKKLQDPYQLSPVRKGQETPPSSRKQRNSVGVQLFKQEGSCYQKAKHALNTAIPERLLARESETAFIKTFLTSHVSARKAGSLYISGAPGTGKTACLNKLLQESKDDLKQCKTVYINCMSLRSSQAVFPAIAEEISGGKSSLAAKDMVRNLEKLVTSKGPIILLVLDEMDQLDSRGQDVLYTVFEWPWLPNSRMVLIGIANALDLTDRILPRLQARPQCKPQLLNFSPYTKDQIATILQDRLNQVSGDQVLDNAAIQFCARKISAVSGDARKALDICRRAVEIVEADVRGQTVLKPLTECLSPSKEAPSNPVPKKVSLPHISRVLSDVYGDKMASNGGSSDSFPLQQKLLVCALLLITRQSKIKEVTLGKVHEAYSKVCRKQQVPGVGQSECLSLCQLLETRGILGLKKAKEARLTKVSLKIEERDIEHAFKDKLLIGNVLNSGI
# [2] = system: MCM2-7 (detected via MCM7) (Xenopus laevis); test: ELISA (MCM7) on immobilized DNA; settings: 5' biotin (BtnTg), Interphase Xenopus laevis egg extract (HSS; 2-fold diluted in ELISA), 30 min, room temperature (ELISA), wash buffer, salt and pH not given in the material
Kd [1],Compound,binding signal ([2]; + 187 uM NSC-95397 (reduction at least 40%)),binding signal ([2]; + 187 uM aminacrine (DNA intercalator; reduction at least 40%)),binding signal ([2]; + 187 uM ethacridine (DNA intercalator; reduction at least 40%))
323 ± 269 nM,"O=C1C(SCCO)=C(SCCO)C(=O)c2ccccc21 [NSC-95397, 2,3-bis(2-hydroxyethylsulfanyl) naphthalene-1,4-dione]",,,
,bDNA (1.8 kb biotinylated DNA),< 60 % of DMSO,< 60 % of DMSO,< 60 % of DMSO
